Measurements as given in PMC6894070, “The Plasmodium falciparum Hsp70-x chaperone assists the heat stress response of the malaria parasite” (The FASEB Journal, 2019).

Molecular target: Plasmodium falciparum Hsp70-x (PfHsp70-x), full-length construct aa 25-679 (P. falciparum) (UniProt K7NTP5)

Substance: J-domain of P. falciparum Hsp40 cochaperone PFE0055c (PFE0055cJ), aa 77-148 (domain or fragment)
- apparent dissociation constant from titrating the cochaperone in ATP hydrolysis assays (5 μM chaperone, single-site binding fit): 3 µM
